Test results published in the supplement of paper PMC12042874.
± gives the uncertainty stated by the source.

Assay: amyloid nucleation score (Sup35N fusion, yeast selection) (log enrichment); library NNK3; higher = more nucleation; inactive = no reads after selection
Summary of the method: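 In psi-negative yeast, Sup35N fusions carrying peptides of 20 random codons were induced with 100 μM copper sulfate for 24 hours. The cells then grew 7 days at 30°C on medium lacking adenine and uracil, and plasmid inserts from input and output were Illumina-sequenced, excluding sequences with under 100 input reads. Nucleation score is the DiMSum log enrichment of output over input reads, centred on the mode score of non-aggregating sequences.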

Substance	amyloid nucleation score
YVVPRFTVMGEQKKCQWRSL	inactive
PCRTDICR	inactive
ILPDLRTFPWSPVVIVHSR	inactive
FATFYVQQGFGNFAPKAYS	inactive
YMAVKRSWSNSMTMIHLNSV	inactive
LWHKMSDMV	inactive
VCCFWVVDIKILFSGLPISS	2.28 ± 0.069
NGWNVMYLFMCRVNSARSIL	1.77 ± 0.081
SYFGRLIQSLTRQWTTVARS	inactive
LLSIAVVDVPSRLSRCITLL	inactive
DDIRCMFRTADFRAKMSVNS	inactive
SQTIYGI	inactive
YKSNLLSYGALLISDFVLVR	-0.108 ± 0.63
DSLSGYSVPYWSSFMNPWTN	0.677 ± 0.24
QSFQRSVYFSSKGNTEGLFS	inactive
GKQIRSNR	inactive
RWYAVLYHLV	inactive
HFEIVSVANKITYCLCQQML	2.28 ± 0.075
LNLCTRLVFNPVTFQGNTFK	inactive
TGSLWRNHCLVVPQVRYGRK	-0.017 ± 0.5
SYSISDDLVTNHVPQNST	inactive
HLFLKHMLLTYCKPCGW	inactive
VMCGNMWVYVKSLDT	0.96 ± 0.11

Substance	amyloid nucleation score
KRFVFPLLIR	inactive
RQIRPMRTLSGTLGAGDRCH	inactive
PSRIGSDFSRFLSEECGQLR	inactive
DMHGRSNNLW	inactive
RFLFSCCVGL	2.3 ± 0.06
FTVTCPGREANIYIFFRGGR	1.37 ± 0.13
MGYCLGNDGSIKALFLVVNV	inactive
WVFVRMMVELINMTAAFAVS	inactive
LNHGVCIFYDQFANLELPPR	2.09 ± 0.067
VGHIRVLDEDNNYMSFYDMR	inactive
PNARKMCMLFVTECFKVVPK	inactive
FAQLISYHSMLTCCKMTM	1.54 ± 0.096
RKMMCKWLCNIKGYIIVV	inactive
ILLSSHSSECNNALIRRF	1.46 ± 0.074
SIRKHFPIRNMDELHSARN	inactive
MHSTVVEHLLWLTFTPGYKL	inactive
YVVFFDFLSQTVIWVSPGRF	inactive
LVVYSVGFWHR	-0.143 ± 0.48
TKCLLFFNRGCR	1.1 ± 0.14
SKPNMAELKLHFTGYPHPAK	inactive
VRFYVAYFILFSDATAMALK	inactive
NVWSVVFVSCLIIYGCPKWM	1.31 ± 0.087
LFSVMSKYSFRWLRDNFCHA	inactive

Substance	amyloid nucleation score
NAMCR	inactive
RVCDMVNTASWAIICSCLHL	2.05 ± 0.068
SFISVCNAVLHIR	inactive
SVMSLDVVMVVRYFY	0.999 ± 0.12
NSSAKGFVQV	inactive
TDVISRMMRGGQVLCMCKQC	inactive
WGWPSFTCTWLCRRSSCRWP	inactive
VCQPNRSQIQGIFLLRNYSV	inactive
LSLNSEVFGLSSTSNTVPFD	inactive
TGVKQCSTFTVFIFAGPVEI	1.74 ± 0.1
NYNRAPMGTAET	inactive
NNTNAQKLLINV	inactive
KGSDFSEFVAWRLLTAYRVP	inactive
QLGLIVRNSCLSSIVVKGML	-0.06 ± 0.54
LHVDS	inactive
AQKFSIWLCTTICINTDFDF	2.31 ± 0.06
RRSISGKVLFTRIQSYLLKF	-0.759 ± 1
MWLSTVDRHHINSQALENVD	inactive
ISNVIMWNWGLDFTNYYSDS	1.45 ± 0.093
TGFLGWDACGALRIFLTVRW	inactive
IPLLQCNIERYISLFVLVVG	inactive
LPFIRV	0.007 ± 0.27
WGRGLRPTLVGMFARAHRGA	inactive

Substance	amyloid nucleation score
TMIFYYRYRLVCDGLFFCGT	0.034 ± 0.48
GLRLFYAHRYAC	inactive
FPRSSRIFSCCSRIRLCAFV	inactive
SMLSMLTLRSLSLTFMKRNQ	0.626 ± 0.32
FIWIIMVGNNVPNT	2.06 ± 0.093
FPMSIESDSLNSGRGLRPWG	inactive
GYTMRG	inactive
LIYLYWGLFVTSNSLETCR	1.4 ± 0.086
YGSKWTLKVFWIMMCFDELP	inactive
IIWAVRKGTPSSRRVTWAGK	inactive
SLTFTLCRVHGGRESRVSLG	0.319 ± 0.81
RCICTRFLVPWDSIA	inactive
FVIELCMWVRLEDVKLCFID	inactive
DSLYWCSPFNGHCSDNNTQN	inactive
GFGYCVWQESGNLRGCRWLW	0.5 ± 0.39
LLVVYIFTGPLTVPHVWTIE	inactive
GTLCTETHGT	inactive
HNLMYDRYP	inactive
PWRCKRWHFYMYVDCANLRQ	inactive
MTMQKSSIFFLHEAKLNFSA	inactive
RDRPKFII	inactive
EQGSSLHRHNHFVTLMGCRG	inactive
AMNPLRLGLWSYNRLAWNMS	inactive

Substance	amyloid nucleation score
RWFRLSWLEISKYA	inactive
AISGIPESIVMLSYFRL	inactive
TWRFVPRPLLVCMLYRYLCK	inactive
FNVLSDPACVRPGLVVRVSE	inactive
YGSIIV	inactive
RLFKNGSMGRSYGSVYRPV	-0.111 ± 0.81
AWSGFE	0.01 ± 1.2
LDAVNF	inactive
ADLPCDVATNLVPLTRSSQM	inactive
FDIYLCDMYSLIFVCTGRLP	-0.544 ± 0.66
SVESQGLWGCCILSKR	2.7 ± 0.06
SYVICGLYIFGCIFRSFTLP	inactive
LLRTL	inactive
LYLYYSSTVSLVKYSNEVNC	inactive
LCLHERCDALSFDDNPYSTR	inactive
RFIVS	inactive
TYLEMDIAPAMRLCS	inactive
IIIVKCT	inactive
PYAGCIH	inactive
CRYSYSELKFVLFSGVGTSD	inactive
VATYVPCPCYSMFCAGIC	-0.355 ± 0.7
WYGDNRGIMYVLGSRINWRY	1.34 ± 0.087
SLSATCLCTVMSTNFIFYVF	0.509 ± 0.41

Substance	amyloid nucleation score
LRWYPVDMI	inactive
RFSVNGNR	inactive
VWRSNF	inactive
SQITRMTPPVSIAADSRFVE	inactive
IRRFIKNIVYTYGHLLLEAH	inactive
YLGFFTAYA	inactive
CQIKNGLDNQKTDYNSSPF	inactive
GADMKTRRSARGLMWTMGSS	inactive
NKEMIFANYSAGRRYVRYST	inactive
IVYMAATKLMVVNSLCNGRG	2.04 ± 0.09
VEPDRERKENVC	inactive
SNRKPWARHIVDRACM	-0.922 ± 1.9
IVLYQATCRSIKRVCVLETL	inactive
WLNYCNCV	1.91 ± 0.078
FVFGN	inactive
FNITGRVSYSIVTLCFMQCK	2.75 ± 0.069
QGIGGATVTFLRLFV	inactive
RMFLHLTRNKCVRVKKASQE	inactive
SDYENTRTNDNDHICVLSVG	inactive
RSEPIKVVWVSISQPMDFFC	2.13 ± 0.077
WQPDTVKGEVLLRVGTMLSV	inactive
NSGCQMFL	inactive
FFGPLPRTAIYQHILCTRNG	0.665 ± 0.14

Substance	amyloid nucleation score
MFKNILCVHVLTSAGT	inactive
RLWYGTYWFT	inactive
FVGSLDFNGVSEGFVASHCI	inactive
FSVFN	inactive
FYPRMYTISQMLDAGQDDAA	inactive
ACLLVRYHTDDSNKRCSL	inactive
TEPRMLGMCPAVVERMRVEG	inactive
SEQVMRTRDSTRAKSGLNVI	0.569 ± 0.22
WSNTFVWLSINLSYIV	inactive
FVFMTDGGVLNVLAWCISEA	inactive
WIMPLDQ	inactive
LYVVWYSHPWTEYFACSLVA	inactive
DDFSVPTDLIDVRRVS	-0.047 ± 1
VYVSYGTFWMSKVWWCDKPG	inactive
LRWLDVLDHTLDIYVSNESI	inactive
DIFCLVVTYAERLLYLKTRT	-0.09 ± 0.75
NLFLGCQN	inactive
CRFFSGFLRPRSNVGGNRYS	inactive
LNVLAPFGWLARFIILAIP	inactive
LQVSIRLTLTNHVDRHTMPM	1.36 ± 0.15
TVSYSQPVWSMDFIVGYLGV	inactive
LEFSYPCRWA	inactive
